From PMC6411374, “Substrate channeling in oxylipin biosynthesis through a protein complex in the plastid envelope of Arabidopsis thaliana” (Journal of Experimental Botany, 2019)
Blank lines part the entries; values can stand above or below the molecule they belong to.

Legend:
[1] = molecular target: T1, AOS (CYP74A) (Arabidopsis thaliana, UniProt Q96242); assay: cis-(+)-12-OPDA formation by free enzymes, HPLC / GC-MS; type: biochemical; details: free enzymes (SDS-dissociated, dialyzed complex), read-out coupled through AOC2; 10 min
T1 construct: free enzyme from SDS-dissociated, dialyzed envelope complex; bacterially expressed C-terminal (His)6 AOS, imported into Arabidopsis chloroplasts (transit peptide cleaved)
T1 sequence (Q96242 34-518): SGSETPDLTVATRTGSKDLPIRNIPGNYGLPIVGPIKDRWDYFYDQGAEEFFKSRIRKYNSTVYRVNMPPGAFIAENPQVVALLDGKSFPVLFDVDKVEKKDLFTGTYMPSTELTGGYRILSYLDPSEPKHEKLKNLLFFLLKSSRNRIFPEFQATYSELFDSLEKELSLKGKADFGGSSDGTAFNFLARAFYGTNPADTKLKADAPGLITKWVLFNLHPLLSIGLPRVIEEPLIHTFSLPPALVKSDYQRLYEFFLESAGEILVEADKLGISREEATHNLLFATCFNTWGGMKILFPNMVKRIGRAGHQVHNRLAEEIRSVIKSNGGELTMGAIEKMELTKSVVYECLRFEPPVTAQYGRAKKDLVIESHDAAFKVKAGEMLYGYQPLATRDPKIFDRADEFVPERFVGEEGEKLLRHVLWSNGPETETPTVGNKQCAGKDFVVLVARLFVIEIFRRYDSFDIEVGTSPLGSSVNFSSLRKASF

[2] = molecular target: LOX2-AOS-AOC2 plastid envelope complex (Arabidopsis thaliana, UniProt P38418); details: intact complex, coupled LOX2-AOS-AOC2 turnover; α-LeA is the LOX2 substrate
[3] = molecular target: T2, C-terminal, (His)6-tagged allene oxide synthase [AOS-(His)6] (A. thaliana, UniProt Q96242 34-518); assay: pull-down; purified (His)6-tagged bait imported into isolated Arabidopsis chloroplasts (2.5 mM Mg-ATP); mixed envelopes solubilised with 1.3% decyl maltoside; Ni-NTA affinity chromatography, size exclusion on Superose 6 (peak I, ~250 kDa); co-purified bands identified by SDS-PAGE with protein sequencing, LOX2 also by western blot; details: one partner purified
T2 construct: allene oxide synthase (AOS, CYP74A), A. thaliana, cDNA of Laudert et al. 1996; also called CYP74A; AtAOS; source: expressed in bacteria, purified to apparent homogeneity by Ni-NTA chromatography; then imported into isolated Arabidopsis chloroplasts; not shown: His6, C-terminal, kept
T2 sequence (looked up): T1 sequence (Q96242 34-518)

[4] = molecular target: T2, C-terminal, (His)6-tagged allene oxide …; assay: cell-based or functional assay
[5] = molecular target: T3, soluble, catalytically active AOS used for reconstitution of the complex (A. thaliana, UniProt Q96242 34-518); assay: reconstitution of the complex in vitro; complex reconstituted from soluble, catalytically active LOX2, AOS and AOC2 and isolated plastid envelope lipids (Supplementary Fig. S8)
T3 construct: allene oxide synthase (AOS, CYP74A), A. thaliana
T3 sequence: T1 sequence (Q96242 34-518)

[6] = molecular target: the molecule itself; assay: SDS-PAGE with protein sequencing; bands of the proteins co-purified with AOS-(His)6 in peak I; ~72 kDa and ~24 kDa bands both sequenced as AOC2

stoichiometry N [3]: 1 | rate of cis-(+)-12-OPDA formation from α-LeA by the intact LOX2-AOS-AOC2 envelope complex against the free-enzyme assay (complex dissociated with SDS and dialysed) [4]: 120 fold
B1: lipoxygenase 2 (LOX2), endogenous in the envelope of Arabidopsis chloroplasts (enzyme, UniProt P38418 57-896, looked up)
chain: ANIEQEGNTVKEPIQNIKVKGYITAQEEFLEGITWSRGLDDIADIRGRSLLVELISAKTDQRITVEDYAQRVWAEAPDEKYECEFEMPEDFGPVGAIKIQNQYHRQLFLKGVELKLPGGSITFTCESWVAPKSVDPTKRIFFSDKSYLPSQTPEPLKKYRKEELETLQGKNREEVGEFTKFERIYDYDVYNDVGDPDNDPELARPVIGGLTHPYPRRCKTGRKPCETDPSSEQRYGGEFYVPRDEEFSTAKGTSFTGKAVLAALPSIFPQIESVLLSPQEPFPHFKAIQNLFEEGIQLPKDAGLLPLLPRIIKALGEAQDDILQFDAPVLINRDRFSWLRDDEFARQTLAGLNPYSIQLVEEWPLISKLDPAVYGDPTSLITWEIVEREVKGNMTVDEALKNKRLFVLDYHDLLLPYVNKVRELNNTTLYASRTLFFLSDDSTLRPVAIELTCPPNINKPQWKQVFTPGYDATSCWLWNLAKTHAISHDAGYHQLISHWLRTHACTEPYIIAANRQLSAMHPIYRLLHPHFRYTMEINARARQSLVNGGGIIETCFWPGKYALELSSAVYGKLWRFDQEGLPADLIKRGLAEEDKTAEHGVRLTIPDYPFANDGLILWDAIKEWVTDYVKHYYPDEELITSDEELQGWWSEVRNIGHGDKKDEPWWPVLKTQDDLIGVVTTIAWVTSGHHAAVNFGQYGYGGYFPNRPTTTRIRMPTEDPTDEALKEFYESPEKVLLKTYPSQKQATLVMVTLDLLSTHSPDEEYIGEQQEASWANEPVINAAFERFKGKLQYLEGVIDERNVNITLKNRAGAGVVKYELLKPTSEHGVTGMGVPYSISI
notes: lipoxygenase 2 (LOX2), A. thaliana, ~100 kDa band of the plastid envelope; also called 13-lipoxygenase; source: endogenous, envelopes of isolated Arabidopsis chloroplasts

stoichiometry N [5]: 1
B2: soluble, catalytically active LOX2 used for reconstitution of the complex (enzyme, A. thaliana, UniProt P38418 57-896, looked up)
chain: B1 chain
notes: lipoxygenase 2 (LOX2), A. thaliana

stoichiometry N [3]: 4 | rate of cis-(+)-12-OPDA formation from α-LeA by the intact LOX2-AOS-AOC2 envelope complex against the free-enzyme assay (complex dissociated with SDS and dialysed) [4]: 120 fold
B3: allene oxide cyclase 2 (AOC2), endogenous in the envelope of Arabidopsis chloroplasts (enzyme, UniProt Q9LS02 78-253, looked up)
chain: PSKVQELSVYEINELDRHSPKILKNAFSLMFGLGDLVPFTNKLYTGDLKKRVGITAGLCVVIEHVPEKKGERFEATYSFYFGDYGHLSVQGPYLTYEDSFLAITGGAGIFEGAYGQVKLQQLVYPTKLFYTFYLKGLANDLPLELTGTPVPPSKDIEPAPEAKALEPSGVISNYTN
notes: allene oxide cyclase 2 (AOC2), A. thaliana, ~72 kDa (SDS-resistant trimer) and ~24 kDa (monomer) bands of the plastid envelope; Found both as trimer and as monomer; source: endogenous, envelopes of isolated Arabidopsis chloroplasts
stoichiometry N [6]: 3

The next lines start with the molecule.

Molecule: CC/C=C\C[C@@H](/C=C/C=C\CCCCCCCC(=O)O)OO [13-HPOT, (9Z11E15Z13S)-13-hydroperoxy-9,11,15-octadecatrienoic acid]
cis-(+)-12-OPDA formation by free enzymes, HPLC / GC-MS [1]: but it was accepted in the free-enzyme assay (Fig. 5C)

Molecule: CC/C=C\C/C=C\C/C=C\CCCCCCCC(=O)O [α-linolenic acid]
cis-(+)-12-OPDA formation by isolated complex, HPLC / GC-MS [2]: α-LeA was converted to cis-(+)-12-OPDA by the isolated, intact (non-SDS-dissociated) plastid envelope complex

B4: soluble, catalytically active AOC2 used for reconstitution of the complex (enzyme, A. thaliana)
chain: B3 chain
notes: allene oxide cyclase 2 (AOC2), A. thaliana
stoichiometry N [5]: 4
